This assay has as its target T1, VC2.2.2 VH-myc (human).
T1 construct: as the VH of m13 (VC2.2.2), from Glu1 to Ser113; Chothia numbering; also called anti-VEGF-C VC2.2.2 VH; single VH-domain of VC2.2.2; source: E. coli (pHEN1), IPTG-induced, bacterial supernatant (ELISA); protein-A purified (SEC); not shown: myc, C-terminal, kept
Put plainly: ELISA; bacterial supernatant of IPTG-induced cultures expressing VH-myc on ΔNΔC-VEGF-C or alpha-2-macroglobulin; detection with anti-myc and anti-mouse HRP or with protein-A-HRP. As to conditions: one partner purified. For orientation: ELISA stands for enzyme-linked immunosorbent assay.

B1: ΔNΔC-VEGF-C (variant not stated for the experiment) (ligand, human, UniProt P49767 112-227, looked up)
chain: AHYNTEILKSIDNEWRKTQCMPREVCIDVGKEFGVATNTFFKPPCVSVYRCGGCCNSEGLQCMNTSTSYLSKTLFEITVPLSQGPKPVTISFANHTSCRCMSKLDVYRQVHSIIRR
notes: fully processed ΔNΔC form of human VEGF-C; also called fully processed human VEGF-C
Turning to B1, the binding result is on record as “binds”.

These data come from PMC2914788, “Phage-Derived Fully Human Monoclonal Antibody Fragments to Human Vascular Endothelial Growth Factor-C Block Its Interaction with VEGF Receptor-2 and 3” (PLoS ONE, 2010).
